One molecule from PMC3664818 (Nucleic Acids Research, 2013) can be followed below.

The assay addresses T1, (His)6-Lif1-K301R (S. cerevisiae, UniProt P53150 1-421, K301R).
T1 sequence (looked up): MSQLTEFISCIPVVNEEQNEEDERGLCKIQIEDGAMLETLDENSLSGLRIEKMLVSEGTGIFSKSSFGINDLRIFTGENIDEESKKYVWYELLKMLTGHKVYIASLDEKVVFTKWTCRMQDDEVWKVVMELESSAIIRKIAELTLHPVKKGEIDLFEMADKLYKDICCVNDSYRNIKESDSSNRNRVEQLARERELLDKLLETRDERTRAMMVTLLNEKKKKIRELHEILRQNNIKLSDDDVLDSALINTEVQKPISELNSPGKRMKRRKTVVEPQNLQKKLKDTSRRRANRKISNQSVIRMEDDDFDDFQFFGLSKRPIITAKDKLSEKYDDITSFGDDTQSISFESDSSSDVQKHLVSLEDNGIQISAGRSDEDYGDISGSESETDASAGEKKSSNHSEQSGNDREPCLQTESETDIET
Description: pull-down.

B1: MBP-Nej1 (natural protein, S. cerevisiae, UniProt Q06148 1-342, looked up)
chain: MDSELKGQQLSDAEWCVKKINGEGNCLLLFLPMSSPTTIVMIVLVSLERLVPYVFKLSQTQLSQQCQSQGFTDSISLNLIKLKLMDILQAPQEINQIGLVDSNLVFSFDVSADITVSINSVPSHVTKDMFYMILQSLCMLLLKLVNLSTQYHYVQRDILNEKQKCLDFLLISLRDLDGGSKVISQWAPENSKNYESLQQCTDDDIIKKLLHKGKFQHQEFLADSLKTLLSLRNKFQDVSRFEESGELNKKERVRFPAVNHFYNDDFELQADPTNEARPNSRGKIKPKTDFKPKSRESSTSSQLRLENFSESEATPEKTKSSSSLVEEYPQKKRKFGKVRIKN
On to B1, for which the binding result was “binds”.
